In article doi:10.1101/2025.03.04.641395 one finds stoichiometry N data, which are given here for one substance.

In assay [1] the target is ForJ (Streptomyces formicae). Description: non-reducing SDS-PAGE.
Assay [2] addresses ForJ (Streptomyces formicae). Description: mass photometry.
Assay [3] concerns the target ForJ (Streptomyces formicae). Nature of the assay: non-reducing SDS-PAGE. This is another data set of the same source.
In assay [4] the target is ForJ (Streptomyces formicae). Description: mass photometry. The source holds these as a separate data set.

With ForJ (natural protein), the stoichiometry N in assay [1] amounted to 2; in assay [2], 2; in assay [3], 4; in assay [4] it was 4.
